Test results reported in paper PMC6384864, “Identification of a Novel Specific Cucurbitadienol Synthase Allele in Siraitia grosvenorii Correlates with High Catalytic Efficiency” (Molecules, 2019).

Legend:
[1] = test system: T1, CC(C)=CCC/C(C)=C/CC/C(C)=C/CC/C=C(\C)CC/C=C(\C)CC[C@@H]1OC1(C)C; assay: GC-MS of reaction product, yeast homogenate (Methods; Results text says purified variants); format: biochemical, Siraitia grosvenorii; conditions: 30 °C, pH 7.0, 100 mM sodium phosphate, 0.1% Triton X-100, allele 50R573L
T1 construct: full length, 759 residues; yeast codon-optimised in pCEV-G4-Km, S. cerevisiae BY4742, no tag told
Text: GC-MS of reaction product, yeast homogenate (Methods; Results text says purified variants) on SgCS (cucurbitadienol synthase, wild type 50R573L)

[2] = test system: T1, CC(C)=CCC/C(C)=C/CC/C(C)=C/CC/C=C(\C)CC/C=C(\C)CC[C@@H]1OC1(C)C; assay: as above; format: biochemical, Siraitia grosvenorii; conditions: 30 °C, pH 7.0, 100 mM sodium phosphate, 0.1% Triton X-100, natural allele 50C573L

SgCS (cucurbitadienol synthase, wild type 50R573L) (Siraitia grosvenorii; R50C), sequence (chain, as listed by the source R50C): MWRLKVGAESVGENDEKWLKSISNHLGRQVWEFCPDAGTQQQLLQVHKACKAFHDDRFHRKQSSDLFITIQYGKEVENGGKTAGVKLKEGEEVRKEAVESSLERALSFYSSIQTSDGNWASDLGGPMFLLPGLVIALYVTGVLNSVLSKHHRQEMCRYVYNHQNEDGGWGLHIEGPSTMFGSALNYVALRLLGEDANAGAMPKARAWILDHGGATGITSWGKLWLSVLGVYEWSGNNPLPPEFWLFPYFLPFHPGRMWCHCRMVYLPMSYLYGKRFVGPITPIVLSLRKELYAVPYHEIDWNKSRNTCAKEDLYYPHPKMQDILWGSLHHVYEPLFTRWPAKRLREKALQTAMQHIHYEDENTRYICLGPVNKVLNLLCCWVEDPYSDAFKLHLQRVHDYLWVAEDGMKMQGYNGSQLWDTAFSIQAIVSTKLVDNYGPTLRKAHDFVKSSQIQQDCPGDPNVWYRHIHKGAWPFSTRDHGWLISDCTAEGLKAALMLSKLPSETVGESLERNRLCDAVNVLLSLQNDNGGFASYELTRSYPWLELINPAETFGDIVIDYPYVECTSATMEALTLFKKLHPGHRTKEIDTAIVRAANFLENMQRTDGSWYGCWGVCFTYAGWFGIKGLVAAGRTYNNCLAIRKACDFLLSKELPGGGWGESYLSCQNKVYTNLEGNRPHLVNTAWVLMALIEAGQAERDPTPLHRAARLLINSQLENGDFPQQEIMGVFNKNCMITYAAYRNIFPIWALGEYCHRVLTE
SgCS (cucurbitadienol synthase, wild type 50R573L) (Siraitia grosvenorii), sequence (chain, as listed by the source): as the sequence (chain, as listed by the source R50C) above, with C50R counted along it

Row | Substance | Km [1] | kcat [1] | kcat/Km [1] | Km [2] | kcat [2] | kcat/Km [2]
1 | SgCS (cucurbitadienol synthase, wild type 50R573L) (Siraitia grosvenorii) | 0.29 µM | 0.0147 s⁻¹ | 49700 M⁻¹ s⁻¹ |  |  | 
2 | SgCS (cucurbitadienol synthase, wild type 50R573L) (Siraitia grosvenorii; R50C) |  |  |  | 0.32 µM | 0.0128 s⁻¹ | 40200 M⁻¹ s⁻¹
